Experiments:
[1] = target: murine ICAM-1 (murine, UniProt P13597 28-485, limits assumed); test: cell-based or functional assay
[2] = target: T1, ICAM-1 purified from human tonsil, coated on 96-well plates (human, UniProt P05362 28-532); test: competition: soluble I-domain against adhesion of K562 cells with wild-type LFA-1 (activated by mAb CBRLFA-1/2) to plate-coated ICAM-1; cells bound (% of input)
T1 construct: mature; also called immobilized ICAM-1

B1: recombinant soluble αL I-domain K287C/K294C (G128 to Y307) stabilized in the open conformation, made in E. coli (receptor)
chain: GNVDLVFLFDGSMSLQPDEFQKILDFMKDVMKKLSNTSYQFAAVQFSTSYKTEFDFSDYVKRKDPDALLKHVKHMLLLTNTFGAINYVATEVFREELGARPDATKVLIIITDGEATDSGNIDAAKDIIRYIIGIGKHFQTKESQETLHKFASKPASEFVCILDTFECLKDLFTELQKKIY
modifications: chain 1: disulfide between C160 and C167 (mature C287, C294)
notes: also called open I-domain; soluble open I-domain
IC50 (read off the curve), PMA-induced homotypic aggregation of EL-4 cells (aggregation score 0 to 5) [1]: ~1000 nM
IC50 (read off the curve) [2]: ~200 nM
